B1: Peak 2 GG (dsDNA)
DNA 1: GCAATCGCGGGGTAGGGCCGTGGAAGGAGAGCCTGCCT
DNA 2: AGGCAGGCTCTCCTTCCACGGCCCTACCCCGCGATTGC
B2: Peak 2 G (dsDNA)
DNA 1: GCAATCGCGGGGTAGCGCCGTGGAAGCAGAGCCTGCCT
DNA 2: AGGCAGGCTCTGCTTCCACGGCGCTACCCCGCGATTGC
B3: Peak 24 GG (dsDNA)
DNA 1: TCATGTCGAGGTTAGGTTGTTCGTCGGACACAGACATT
DNA 2: AATGTCTGTGTCCGACGAACAACCTAACCTCGACATGA
B4: Peak 24 G (dsDNA)
DNA 1: TCATGTCGAGGTTAGTTTGTTCGTCGCACACAGACATT
DNA 2: AATGTCTGTGTGCGACGAACAAACTAACCTCGACATGA

In the first data set the target is T1, His-GlnR (Mycobacterium smegmatis (mc2 155?)) (UniProt A0R4C4).
T1 sequence: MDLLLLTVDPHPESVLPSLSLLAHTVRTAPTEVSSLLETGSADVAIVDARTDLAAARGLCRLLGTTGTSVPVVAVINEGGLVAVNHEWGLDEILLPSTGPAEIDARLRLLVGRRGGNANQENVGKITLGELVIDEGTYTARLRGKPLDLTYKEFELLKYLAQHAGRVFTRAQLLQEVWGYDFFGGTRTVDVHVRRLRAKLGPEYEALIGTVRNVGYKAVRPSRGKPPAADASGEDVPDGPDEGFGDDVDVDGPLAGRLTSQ
Kind of data set: EMSA. The conditions noted are these: EMSA: 0.4 ng DIG-labelled DNA, 0-0.9 ug His-GlnR, 0.5 ug poly d(A-T), 25 mM Hepes pH 7.9, 150 mM NaCl, 2.5 mM MgCl2, 37 C, 15 min.
For “AAGCCGGATCCAGACGTGTGTTTCCGCGGCATCGGGCGACTGTGTGCTCGATGTTTAGACTTTACTGCTTGGTAACCTACGGAGCCGTAGGTTACGGTAGCGTAGGTAGACGAAAGGAGGGTTGCCAATGGCTGTTACCGACGTCCCGGCGTTCGCGCATCTGACCGAAGCCGATATCGAGAACCTGGGTATCGAGC (double strand) [peak 13 MSMEG1886 promoter]”, the binding result is on record as “binds”.
Same read-out and setting: next, “GCGCTGCTGGTCATGGGTTTTCTCTCTGGCTAGGGGCGCTGCCGCCAGCTCTTACCTGTCAGATGACAGATAACAATGGGCGCGTGTCCTCGGCGTCACCCGAATGTTTCGTTCATGTAGCCGTCGGTAAGCATTCGGTTGCAGAACCCTCACCGCCCGTGGGCCTGTCACAATCGCCGGTATGCCCGCCCCCGACCTCGTGCAGCGCCACATCGACG (double strand) [peak 17 MSMEG2184 promoter]”: “binds”.
Same read-out and setting: in the case of “AACGGTGTGCTTCCTCCGCTGTAGGTGGATCACCGCGTGAAGCGGGTGACCGGTGCAGGGTCGGCGCAACTTACTGCGCTTGGAAAATGCTCGCGCAGGAACGTTTCGGTGGATCCCGTCGGCAATGTCGGTGACGTTAACTCTGCACGGCCCCGCGTTACGTTGTGGTGACCTGACGCAACGGATTTCGTTGTGTGTCCGGTAG (double strand) [peak 22 MSMEG2526 promoter]” it was “binds”; in that of “GACGCGTCCATTCGGTTGTCCTCCCCGTTGTCGACGGGCCCGAAGCTACCCACGCCATGTTGCGACGACGTTGCGGTTGCGTTCGAACCCGTTGACATCAGCCAGAATTGACGCACGCGTCGGACTACCAGCGGTAGTCGAGGAACTTCCCGTCGAAGGTCACCACCACCCGGTCCCCGTCTGGATCGGGACGACGCTGGATGTCCACCTTGAAGTTGATGGCGCTCATG (double strand) [peak 42 MSMEG5358 promoter]”, “binds”; in that of “GAGTGTTTGCGGGGCGTTACAGCCGGCGTTGGCTGTGCAACGACCTGTGCTTTGTCGGCGGGAAACATGAGCGTAACAGTGATCGGGATTGCGTTCACTTTCCGGAAACGCAACGGCAGCACCGGCGAAACGCCGGCAACAGAATCTCATCGGGAGGCCGATCCGTCGGCGCACTTCCCAAGGAGGTTCACACAAA (double strand)”, “binds”.
On the same count and under the same terms, next, “GTACGGGTCGCGCACCTTGTCGGTGAGGATGAGGATCGCATCGACGATGCCCCAGATGAAGGCACCGATGCCACACGTCACCAGGCCCACGATCAGCTGCGCGATGCCGAGCCCGGTCTGCCCCAGATAGATCCGCCCGAACCCGACGAAACCGACCAGGCCGATCAACTGCAACAGGC (double strand) [MSMEG3224 promoter (negative control)]”: “no binding”.
With “AGCTTGCCTACGAGCTCGAGGAGGCGCGGCCCTGGGCGCGCATACAAGATGTCACCGCGACCAAGCAGCCGCGTAAGCGGGCCGCGAAGAAGGCCACGAAAACCACGGAGTAGGGCACAAACCGGCGTGGCGCGTGACATGACCCCGTAACCCGGGCCGTGTCCTGTTAACGAACTCGACACCGCGAACGGCTGCGGGTGAAACATCGGGCTCGCAGCATCCCTCATT (double strand) [peak 21 MSMEG2522 promoter]”, the binding entry is listed as “binds”.

For another data set, the target named is T2, His-GlnR (Mycobacterium smegmatis, UniProt A0R4C4 1-261).
T2 sequence: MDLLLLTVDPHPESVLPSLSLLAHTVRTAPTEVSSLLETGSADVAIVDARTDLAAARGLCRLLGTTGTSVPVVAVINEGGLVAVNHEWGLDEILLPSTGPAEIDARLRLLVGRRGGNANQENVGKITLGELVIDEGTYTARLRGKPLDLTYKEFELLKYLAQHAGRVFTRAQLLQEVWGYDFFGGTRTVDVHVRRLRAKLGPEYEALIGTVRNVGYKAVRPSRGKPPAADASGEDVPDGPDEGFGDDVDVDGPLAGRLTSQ
The experiment in a line: EMSA; EMSA: 0.4 ng DIG-labelled DNA, 0-0.9 ug His-GlnR, 0.5 ug poly d(A-T), 25 mM Hepes pH 7.9, 150 mM NaCl, 2.5 mM MgCl2, 37 C, 15 min. The conditions noted are these: protein: recombinant; tags: N-terminal His6 (pET28b); chain copies: 2; label: DIG 3'-end; blunt.
Regarding B1, the binding result is “no binding”.
With B2, the binding result is given as “no binding”.
On the same count and under the same terms, next, B3: “no binding”; B4: “no binding”.

The record behind these values is article PMC3662644, “Genome wide analysis of the complete GlnR nitrogen-response regulon in Mycobacterium smegmatis”.
